In paper PMC9082315 (Frontiers in Immunology, 2022):

Molecular target: monomeric SARS-CoV-2 RBD (S residues 332-534) with Flag peptide and 8xHis-tag (SARS-CoV-2, WA1 (Wuhan-like), UniProt P0DTC2, biotin (only in the flow cytometry on bacteria))
Test: SPR
Settings: both partners purified

| Binder | Kd |
| --- | --- |
| Nb 1.29, monomeric nanobody (VHH) VHH: QVQLVESGGGSVQAGGSLRLSCAASGYTINTDAVAWFRQAPGKGDERVAVIYTGSGNTNYADSVKGRFTISQDNAKNTVYLQMNSLKPEDTALYYCASGYYGASGYDFNNWGQGTQVTVSS | 13 nM |
| Nb 1.26, monomeric nanobody (VHH) VHH: QVQLVESGGGLVQAGGSLRLSCAATGYTWSSVCMGWFRQAPGKEREGVAGIPSGRNRPYYADSVKGRFTISQDNAKNAVFLLMNSLKPEDTAIYYCAPCSAPHDPEYNYWGQGTQVTVSS | ~0.3 nM |

Molecular target: monomeric SARS-CoV-2 RBD with Flag peptide and 8xHis-tag (RBD-FH) (SARS-CoV-2, WA1 (Wuhan-like), UniProt P0DTC2)
Test: SPR
Settings: both partners purified

| Binder | Kd | koff | kon |
| --- | --- | --- | --- |
| 1.29 Nb (VHH) VHH: QVQLVESGGGSVQAGGSLRLSCAASGYTINTDAVAWFRQAPGKGDERVAVIYTGSGNTNYADSVKGRFTISQDNAKNTVYLQMNSLKPEDTALYYCASGYYGASGYDFNNWGQGTQVTVSS | 12.9 nM | 0.00614 s⁻¹ | 476000 M⁻¹ s⁻¹ |
| 1.26 Nb (VHH) VHH: QVQLVESGGGLVQAGGSLRLSCAATGYTWSSVCMGWFRQAPGKEREGVAGIPSGRNRPYYADSVKGRFTISQDNAKNAVFLLMNSLKPEDTAIYYCAPCSAPHDPEYNYWGQGTQVTVSS | 0.26 nM | 0.000624 s⁻¹ | 2.44e+06 M⁻¹ s⁻¹ |
| 2.20 Nb (VHH) VHH: QVQLVESGGGSVQAGGSLRLSCAASGYTYNNYYMGWFRQAPGKEREGVAAINSDGLDTYVADSVKGRFTISRDNAKDTVHLQMNSLKPEDTAIYSCATGRTVYYSGYDFRLSVDDYWGQGTQVTVSS | 0.77 nM | 0.00101 s⁻¹ | 1.3e+06 M⁻¹ s⁻¹ |
| 1.10 Nb (VHH) VHH: QVQLVESGGGSVQAGGSLRLSCAASGYTYSTCRKGWYRQAPGKERELVASITADGATYYLDSVKGRLTISQDNAKNTVYLQMNSLKPEDTAVYYCAASVKDFTCTFNSWGQGTQVTVSS | 3.96 nM | 0.00137 s⁻¹ | 345000 M⁻¹ s⁻¹ |

Molecular target: T1, human fibrinogen (control antigen) (Homo sapiens, UniProt P02671;P02675;P02679-2, biotin | biotin | biotin)
T1 construct: also called human fribrinogen
Test: flow cytometry on cells
Settings: one partner purified

T1 sequence (P02671 36-866, chain 1 of 3): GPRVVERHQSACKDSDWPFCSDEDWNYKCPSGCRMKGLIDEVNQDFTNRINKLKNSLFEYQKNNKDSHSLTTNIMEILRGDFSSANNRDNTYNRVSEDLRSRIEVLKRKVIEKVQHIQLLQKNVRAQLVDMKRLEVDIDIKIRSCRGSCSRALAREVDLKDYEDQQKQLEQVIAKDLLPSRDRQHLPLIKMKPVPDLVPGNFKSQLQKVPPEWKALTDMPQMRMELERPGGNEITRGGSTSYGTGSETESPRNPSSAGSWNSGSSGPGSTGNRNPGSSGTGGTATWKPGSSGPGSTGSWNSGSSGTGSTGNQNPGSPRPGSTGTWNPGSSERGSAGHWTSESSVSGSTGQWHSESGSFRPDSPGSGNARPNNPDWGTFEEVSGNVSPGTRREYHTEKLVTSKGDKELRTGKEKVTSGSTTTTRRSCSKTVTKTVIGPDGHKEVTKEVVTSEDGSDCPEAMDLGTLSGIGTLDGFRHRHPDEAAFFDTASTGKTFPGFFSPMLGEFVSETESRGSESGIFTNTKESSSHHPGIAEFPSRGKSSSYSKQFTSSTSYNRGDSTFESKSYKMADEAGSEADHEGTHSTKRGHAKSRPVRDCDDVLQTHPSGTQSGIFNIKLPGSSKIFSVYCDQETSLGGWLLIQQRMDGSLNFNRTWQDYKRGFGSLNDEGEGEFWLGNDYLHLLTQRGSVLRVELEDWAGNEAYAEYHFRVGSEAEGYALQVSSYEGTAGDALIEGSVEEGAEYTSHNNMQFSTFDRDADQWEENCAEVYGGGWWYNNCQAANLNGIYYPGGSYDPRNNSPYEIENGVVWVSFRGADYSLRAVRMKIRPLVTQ
T1 sequence (P02675 45-491, chain 2 of 3): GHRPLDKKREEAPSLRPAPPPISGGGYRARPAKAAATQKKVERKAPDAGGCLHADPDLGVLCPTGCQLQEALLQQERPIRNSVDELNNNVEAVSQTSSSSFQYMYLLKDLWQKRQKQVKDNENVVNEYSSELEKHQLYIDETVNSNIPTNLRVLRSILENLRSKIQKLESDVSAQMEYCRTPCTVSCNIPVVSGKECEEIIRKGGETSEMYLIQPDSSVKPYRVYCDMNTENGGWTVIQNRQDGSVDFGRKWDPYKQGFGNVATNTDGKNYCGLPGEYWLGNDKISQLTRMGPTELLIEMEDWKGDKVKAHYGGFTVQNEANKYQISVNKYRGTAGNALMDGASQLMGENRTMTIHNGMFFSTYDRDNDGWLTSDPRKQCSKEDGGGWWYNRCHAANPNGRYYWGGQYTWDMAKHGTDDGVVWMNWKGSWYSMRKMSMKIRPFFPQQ
T1 sequence (P02679 27-453, chain 3 of 3): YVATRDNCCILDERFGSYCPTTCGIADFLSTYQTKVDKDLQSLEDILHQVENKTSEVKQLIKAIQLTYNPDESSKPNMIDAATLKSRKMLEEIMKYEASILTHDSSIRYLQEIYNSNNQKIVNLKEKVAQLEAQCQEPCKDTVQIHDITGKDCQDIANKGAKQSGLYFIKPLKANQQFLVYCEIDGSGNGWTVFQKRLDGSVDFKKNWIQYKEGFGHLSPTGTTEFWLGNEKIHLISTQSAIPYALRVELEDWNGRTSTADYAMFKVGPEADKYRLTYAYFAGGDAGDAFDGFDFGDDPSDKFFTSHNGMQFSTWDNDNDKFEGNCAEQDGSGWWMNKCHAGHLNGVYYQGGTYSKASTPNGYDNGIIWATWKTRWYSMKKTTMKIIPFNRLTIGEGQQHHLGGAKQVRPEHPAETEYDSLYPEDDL

| Binder | binding result |
| --- | --- |
| Nb 1.29 displayed on E. coli as intimin-Nb-myc tag fusion (VHH) VHH: QVQLVESGGGSVQAGGSLRLSCAASGYTINTDAVAWFRQAPGKGDERVAVIYTGSGNTNYADSVKGRFTISQDNAKNTVYLQMNSLKPEDTALYYCASGYYGASGYDFNNWGQGTQVTVSS | no binding (tested: 100 nM) |
| Nb 1.28 displayed on E. coli as intimin-Nb-myc tag fusion (VHH) VHH: QVQLVESGGGSVQAGGSLRLSCAASGLTNIRCHMAWYRQAPGKGRELVSRITTNGVTDYADSVKERFTISRHNAENTVYLQMNSLKPEDTAVYYCAACGFSTTTYWGQGTQVTVSS | no binding (tested: 100 nM) |
| Nb 2.1 displayed on E. coli as intimin-Nb-myc tag fusion (VHH) VHH: QVQLVESGGGSVQAGGSLRLSCAAFGATISSAHMGWFRQAPGKEREGVAFRYTDGSSTYYTTSVRGRFTISQDNAKNTVYLQMNSLKPEDTAMYYCASNPSWGRLVGGQYNNWGQGTQITVSS | no binding (tested: 100 nM) |
| Nb 2.15 displayed on E. coli as intimin-Nb-myc tag fusion (VHH) VHH: QVQLVESGGGSVQAGGSLKLSCAASGYASWARKCIGWFRQAPGQEREGVAAIFDFDGSTYYSDSVKGRFTISGDNAKNTVSLQMNSLLPKDTAVYYCTVAFGTCDNWYRGRGDYWGQGTQVTVSS | no binding (tested: 100 nM) |
| Nb 1.16 displayed on E. coli as intimin-Nb-myc tag fusion (VHH) VHH: QVQLVESGGGSVQAGGSLRLSCAASGNTSKRKCVGWFRRAPGKEREGVTLIYTVGGSTVYADSVKGRFTISQDNAKDTVYLQMNSLKPEDSAMYYCAAESWGRQCNLETHRFTFWGQGTQVTVSS | no binding (tested: 100 nM) |
| Nb 1.26 displayed on E. coli as intimin-Nb-myc tag fusion (VHH) VHH: QVQLVESGGGLVQAGGSLRLSCAATGYTWSSVCMGWFRQAPGKEREGVAGIPSGRNRPYYADSVKGRFTISQDNAKNAVFLLMNSLKPEDTAIYYCAPCSAPHDPEYNYWGQGTQVTVSS | no binding (tested: 100 nM) |
| Nb 2.11 displayed on E. coli as intimin-Nb-myc tag fusion (VHH) VHH: QVQLVESGGGSVQAGGSLRLSCAASGDASNRKCVSWFRRAPGKEREGVALIFPVGSSTAYADSVKGRFTISQDSAKDTVYLQMNNLKPEDSGTYYCAAVSWGGRCNLETQTVTFWGQGTQVTVSS | no binding (tested: 100 nM) |
| Nb 2.20 displayed on E. coli as intimin-Nb-myc tag fusion (VHH) VHH: QVQLVESGGGSVQAGGSLRLSCAASGYTYNNYYMGWFRQAPGKEREGVAAINSDGLDTYVADSVKGRFTISRDNAKDTVHLQMNSLKPEDTAIYSCATGRTVYYSGYDFRLSVDDYWGQGTQVTVSS | no binding (tested: 100 nM) |
| Nb 1.10 displayed on E. coli as intimin-Nb-myc tag fusion (VHH) VHH: QVQLVESGGGSVQAGGSLRLSCAASGYTYSTCRKGWYRQAPGKERELVASITADGATYYLDSVKGRLTISQDNAKNTVYLQMNSLKPEDTAVYYCAASVKDFTCTFNSWGQGTQVTVSS | no binding (tested: 100 nM) |
